Reference: the domain aggregation screens of Martell et al. (2025)

Test: soluble fraction after stress (log2 fold change); higher = more stays soluble; pooled small domains, quantitative proteomics
Details: stress: pH 4
Method in brief: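 Values are log2 fold changes, and higher ones mean more of the domain stayed soluble. Each fold change reflects the soluble amount of a domain after acid stress and is taken as a measure of aggregation propensity. The stress was pH 4, applied to pooled custom libraries of small protein domains analysed by high-throughput quantitative proteomics.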

Sequence | soluble fraction (log2)
HMDDIVPHSTKNHIIKTFLSLMNSLDIITDKNKKSLNQNVHIIFNKFNFSKKEANLFIGVLNRIQKALK | 0.134
HMDDLFGNAIEMFNNQRYDMTYELLVQLLSETPNNEKAWQLLADTKFMLGDYDDALHIVGKAAK | -1.36
HMDDPWHNLANAIVAVAADDYRSALRNEDEGLLKSLELFFHSEWYRILTDVDADRLLGMLRRERS | -1.14
HMDDTPLNNVIKKIAALPENITLADKSAVLSAWEAYQALSVNLKAQVSNSELLIKAYETILQLEGEDQIK | -0.397
HMDDYRIEDMMTVVEEQVIRQKETNLSWFFKRAGSLNEIITIFLAALELIKVHRVYVKQEHNFDDIILRKE | -0.872
HMDEAAGVLTQLRAFIAASNLSPGLRLPPERELAEQLGVTRAELRKALAVLEAEGLLWRQVGKGTFYGARP | -0.523
HMDEAEELYQAVQALKPKYREVILLHYYQGLRVGEIAAILRAPQSTVSIRLRRARQMLNRMLG | -0.0788
HMDEALLRATLLDVLVKHHPKIGDKLDVVFALAKAWVSSGSDDDFEVLEKYMERLKPDEALMLASGFSNML | -0.819
HMDEDTWKLYKRAYKKYYARYMKGNMSEAAFKAWGEQAAADRDAAIEQLRATTDAALSASIIQQLKEKLNR | 0.22
HMDEEDVLNELIRRLALTADDRLLLSLSYEDGLSSRKIATLLETSAATVQRRLAGLHHQLEQALRVMGLA | -0.828
HMDEEGDALDREYEDQIRLGDEAFDAEDWTSAQRAYTAALELRPDERYPKNRLRRLASLQEDV | 0.161
HMDEETVALQKAIHSLPPKQQAVFNMRYYDEMSFREIADANETTESSAKANYHFAKAKIIEQMKR | 0.166
HMDEILHHPSYRAIYEYMLDHKHVKTKDIAALLNVKEPRARQLLKEMIDKHFIIALGSNRNREYELL | 0.348
HMDEKSGWLHLAPHEGALRAALYAEHAVQEERTAPDGSQWLRLVLREKHYHQIQSKYNRRLTLHTQPDPS | ≥ 0.43
HMDENDPYEILEIDRLASDDQVKAKYRALIRENHPDVLMAKGVPQEFIDLANRKMAVINAAYDRIEKEREF | -0.616
HMDEPGAGYKWREDVLLRVMASHGIEESLRDDFVRHAVGFDNDDNMYLKKVEIENAAAAWVAN | -1.36
HMDETELLLQKAIATLPDKQRVVFNLKYFDEMKYEEMSELLETSVGALKASYHLAVKKIEQFFHDA | -0.241
HMDETYRRQLEDLAREHGAEYLHGILREVDPASAEAIHANNIKRVIRALEFYHLSGKKISEHNETERQ | -0.00358
HMDEVHYLADKERGTTWEEILIHADRDIKFLSLSATINNKNEFLEWLVSLRGTTSLIHSSTRPIPLEI | -0.682
HMDEVLDQFVRGQIYGYIRANPGDIYSSIRDNLGLKNGVTTYHLDVLAREEYVYSEIDGTNRRFYPSGWEE | -2.23
HMDEVVVVERGGVQITMSEIDAKIMELPVDVRPSYLDSPERLQNFVSNLLLEKQAAQLKSQY | -1.42
HMDEWDPAILYVGLDYEDAAQIATRLATSGVPYRLSPDGTMITVPDDQVNNMRLTLAGEGFPH | -1.12
HMDEYFNPETVVHYLRELFDTYRENGGNPFEWFHSTFESVNLNPQNYRKDLITTIEKALIEWIEIFEKQ | -0.553
HMDFDPDVPSREDILQAFRDSKPPLTVNALISEFGLSRDASIVGLERRMGAMQRDGQLEQTPSGWQLSV | 0.144
HMDFFVLVGAYKTPDEAETIRAKIAFSGLDSSVSHGNDGRYRVRIGPFHSEGDARKAQSTLRANDIPGQII | 0.18

Sequence | soluble fraction (log2)
HMDFGMPEELQKKLDKMPALKAAFEALTPGRQRGYIFYFSQPKQSKTRELRIEKSIEQIMNGKGLND | 0.199
HMDFIEYIISEESKGLRADQAISMENDKFSRSLIQKWIKKGRVLVNGRKIKPKDIVNLNDKITINPEESIN | -0.597
HMDFITPYEIEQGQYEGAELYEDGKFEEAFSLSSIAAQRGMKTAQYLLGIMFLKGEYVDQSLAIGMAW | -1.18
HMDFPYISGIEIAAIKNREFIRIETDKAQEIAIALDKSGIPFSARFSDAEMVLTYDGSYKEQVEDIIAKA | -0.808
HMDFSERLARAMSLAGYTQGRLAKEVGMAQSSVNKLLNGANGSRKTVEIASVLGVRPEWLSTGAGEML | 0.0512
HMDFSSRLKDERKRLKLSQAQLGEAGGVSKDAQLNYENGSRSPSASYLELIAREGVDVQFLLTGKRS | -0.0636
HMDFSYTVGDIDEPIDSRGNSVIMLRKLAWGSNAEKLEIRRWIIDIDSERANKGVTFLTEEGPHNLVRV | -0.332
HMDFTISDADFHRLVQFIQQNYGVALSKKRQLISSRLSHSLRELGYKDFRTFLEHLFSTRDPADLELVLNK | -0.399
HMDFYVILGVDRAASLSDVKRAYRRLARKHHPDINPGDPESDAFFMRVTEAYETLVDPDRRQEYDEHG | -1.34
HMDGEFINLKNRAGTEIEARILNYQNGQVKLERKDGVTFVVSISMFDAKSVIAINHKIAEIIDT | 0.12
HMDGIDALEPLMRRVFEALPQRRSMTIERAAVAAGLDEESVKIALVRLQLEGYVANDERGWHRSKSPH | -0.000736
HMDGIGLRVRMIREGVGLTQKQLAEHLGMQRTALVQVEAGSRKLSASELIGVARFFNITVEQFLDPEK | -1.72
HMDGIPVPDVKGTVEAEATATLKNSGFEVTKTQDFSDTVEAGKVISQNPAGGSSAASGSSVTLVISQGPN | -0.232
HMDGISANAVKALIESLIAGEDKRKPLSDQAMSDRLALQGIVLARRTVAKYREELNFPPAHQRKQK | 0.22
HMDGLPYPEAAEEPIAQVARNLGMDATRVSIALQEAKLIFRNLDETLAEIAANNGTTPQVVYDAIRHLEPP | -0.372
HMDGLTEQQADDILAFISIKGTNAEVLAALENYAGRNETFDTGLSELKVVASNLAAFGMPEENFVVDL | 0.0229
HMDGPGDRLLIAIQENSMTQKKFAQLIGMSPNGLNSIIKGKKRLSRVLAIATERLTGVRADWILQNEQPK | -0.244
HMDGQPLSERQQEILRWVAEGLSNREIGERLNITPNTVRDHLSEVMRRLEVSNRTSAVSTAFHLGLLP | -0.178
HMDGRIRFRHAALHDPDVAARLHDYLTTSLPGVRSARVNSQTGSLLLEYDPEVLDRSTLLDLAARAESLL | -1.06
HMDGRSLSHATLEEIRIRAVQRVEAGESPEVVVKALGFSRPRIYEWLALYREGGLEALRAKPV | -0.53
HMDGSEYAGTVRLGDGTLQPVPRFETSNSETPKYLYLVMDVTHDPPVYILEHESAELKSVLGGLVLIGSYS | -0.0612
HMDGTVRGKTTFQELLDWGVPQERIEAVLGGPIPAPGVVIKDYVTAQGKEFSAVRDALQAEVDAVLK | -0.229
HMDGVLLDHLDGFVTTRRGVEAWLEQPTSFNKPSILLVAADGESTRRAIPSIAFGYDFASRHDIPAYDAG | -1.29
HMDGVPPAGSRIRLTVSTQVGDKEFEGTLVPPAGVDLLTLKLANGYNLSHSIADVREVVLIEEGLQGEEP | -2.05
HMDGVSLLFKLMETLPEQQKTILHLRDVEQLEFAEIAKITNTSQANVRVALSRARKKIKDLLLKQY | -1.31

Sequence | soluble fraction (log2)
HMDGVYLKSLKQTEQHIHWSGYAQSNAWVSTLMRNLDASPWFESPLLIEIKAATINNSRSNEFDLNVRL | 0.102
HMDGYTVYTNWGSDTNVARSDQQIQSQIPQLSGATIVGVWTKPIATGGTSYKIRYRTNSGAFTEIDVDQ | -0.0816
HMDHKTKLQEVLQKSGDVFIEYRLIKEEGPAHERIFWIEVYVDDQLIGTGQGKSKKLAEQAAAENALAALE | -1.15
HMDIEHREMKLQKLVITADSPLVGKTLKESNVRQRYNFMVVGVEEGQKNLTMINPNRRFEVGDIVWVVGEE | -0.204
HMDIFGREAEVEQILQEVRFGDDPHYRLSIGILPVTGHAGAGKTALVRFIFHHEVARAEFTVRMWVHV | -0.998
HMDIGKNIQTIRYANKLTQDQVIAKLNLMGISMSKSTYAKLETNRMNIKVSELVALAKIFHTDINAF | -0.274
HMDIGTYTVTASALNIRQYPTASSAKTGSYPNGSIVTIYEYLTDGSWGRTDDGWISMNYVSRRY | -1.37
HMDIHSEEYILGQNIRKYRLRLGWSQADLSNAVDIDRADISKYENGAKGIMSSTLLRKFAKALGVSMDALM | 0.0187
HMDILPRMVASEMRAVGVPPERMTREEKGTVIRNLMNAGIHQMKGAVVEIARQLHLSEPTVYRYIKREKG | -0.177
HMDINMELGKNIRRLRKLNNLTQQSLANQMNRSKTLIALWEKGERDPSSIDLKRLSEIFNVRADDIIG | -0.00935
HMDIRMLLSDREEEIMILLSKGLSISEAANRMQIGQASAATYLNRARRKLKAETVRQAVAIWTGD | -0.422
HMDISAFDTEFIISKFGGIRPMAQKLGVPVSTVQGWKQRQTIPQNRMGDILEAAKNYNLELTP | 0.114
HMDISPAAKQRLALIQPLLEKNAEAITDRKLRNAVAKDIANNQNTTVRRVLRLYYRYLATGQVM | 0.158
HMDIVIPIQVKNVSSGEVLDFPSIRAAARDLKFPKTTISLGVRYAGEKAYKGFVMRYRSDDPWPIVQES | 0.103
HMDIYLDEVNRKILHLLSQGIKTRSLREYINLSMSAIEKRKKHMKELFLVEDGKDETLLNEARNKGF | -0.64
HMDIYLTAFKTTSNQVTLNGIARSDLIISEFMRDIRDAKLFGEPVLQVIQNKNLNNVQARVFELVVPL | -0.399
HMDKATMRWEQIEKFLETHPYIMNADVRALFNVSAATANRILATLTTEGKLVKYREGGHWAYKY | -0.217
HMDKELILLWDRVKSKVWQMDIQDSQVANWFQRNYHLTVRLRDFDPPVPPDKFTAEQLASFIKDIERHT | -0.000327
HMDKGMQTMIDNLHKNTGKTLEEWIALVNRANFAKHGEVISFLKEKHGLTHGYANLVAHRLK | -0.361
HMDKINQEAIEDEAGLWLAKIDGRQLAQEEVRELIAWMRRSDFHREYLITLARQWDGMAALNKLATLFP | -1.4
HMDKLFNRQTLGGVELTQKQIEDLNAGKAIFVEGMQRKDGEVFSSYVKLDEATGRPSYTRYNPDSP | 0.0109
HMDKLSYALGLSMGHNFLGSGIKSLNVEDFAKGVEAVYKQEKPEISFDEAKKIINEFFSNLQDEIAE | -1.33
HMDKNLQYADTPKGKLREYIKNLPNGSTVNRQKLAEEFGIKKQSMGTVTEVFQEFPDKNFKFVNP | -0.157
HMDKPVIEDVSFDDLAYMVGERVIIRTHLRSTRDGELKSFNRAGILVSLRNRPGMELEIPRSTVASAQVVW | -0.744
HMDKQEKIHKKKIIILEALKRLLQNDVYSRITVQAVADEAGFSKGGLLHYFPTKEEMYIEFMEY | 0.092
